From patent US20230392126A1, “TISSUE ORGANOIDS” (priority 2016, published 2023)

Tests used:
[1] = tested on: mouse epidermal stem cells; assay: Cell proliferation and differentiation of engineered mouse epidermal cells in vitro (cell cycle FACS, calcium shift western blot); format: cell-based
Procedure: Primary human neonatal epidermal keratinocytes were obtained from Thermo Fischer® (C0015C), and cultured with Epilife® medium (Thermo Fischer, M-EPICF-500) with manufacturer's recommended procedures. Calcium shift was performed to induce differentiation of primary keratinocytes by increasing the calcium concentration in culture media to 1.5 mM.
Propidium iodide (PI) staining followed by flow cytometry were used to determine the effect of cell cycle profiles. Mouse and human epidermal cells were cultured in two 6 cm cell culture dish for 24 hours, respectively. Cells were trypsinized, and 1×10^5 cells from each dish were collected, followed by one PBS wash. […] After staining, the cells were analyzed immediately using flow cytometer BD FACSCanto™ II (BD Biosciences, San Jose, CA) with an excitation wavelength at 488 nm and emission at 585 nm. DNA content and histograms of cell cycle distribution were analyzed using FlowJo™ software, version 10 (FLOWJO LLC, OR).
Western blotting was performed as described previously (Blanpain et al.). […] Visualization and quantification was carried out with the LI-COR Odyssey® scanner and software (LI-COR Biosciences).
Propidium iodide (PI) staining followed by flow cytometry were used to determine the effect of cell cycle profiles. […] DNA content and histograms of cell cycle distribution were analyzed using FlowJo™ software, version 10 (FLOWJO LLC, OR). […]

[2] = Acute drug overdose test: cocaine-induced lethality; format: in vivo, mouse; conditions: 40, 80, 120, 160 mg/kg cocaine i.p.
Procedure: For all behavioral experiments except where noted, C57BL/6J mice were used. Roughly equal numbers of adult male and female mice were group-housed until surgery. Mice were maintained under controlled temperature and humidity conditions on a 12 h:12 h light:dark cycle (lights on at 7:00). Water and food were available ad libitum. Mice weighed around 25-30 g at the beginning of the experiments. All procedures followed National Institutes of Health Guide for the Care and Use of Laboratory Animal and were approved by the University of Chicago Institutional Animal Care and Use Committee.
Drug: Cocaine HCl and methamphetamine HCl (Sigma-Aldrich, Saint Louis, MO) were dissolved in sterile saline and delivered intraperitoneally at appropriates doses in a volume of 10 mL/kg. […]
Acute drug overdose test: Two weeks after grafting surgery, 4 groups of GhBChE and 4 groups of GWT mice (n=8 each in each group) received i.p. injections of cocaine at 40, 120, and 160 mg/kg. […] Mice were monitored for 2 h following injection and percent of cocaine- and METH-induced lethality was calculated.
To first determine whether engrafting hBChE-expressing cells protects mice from acute systemic toxicity of cocaine, we delivered different doses of cocaine to grafted mice and calculated the lethality rates of cocaine. […]

[3] = after i.v. injection; cited from earlier work
[4] = cocaine hydrolysis; cited from earlier work

B1: hBChE: modified human butyrylcholinesterase (E30-6, SEQ ID NO: 41), cocaine hydrolase, expressed from engineered epidermal cells / skin grafts (protein)
chain: MHSKVTIICIRFLFWFLLLCMLIGKSHTEDDIIIATKNGKVRGMNLTVFGGTVTAFLGIPYAQPPLGRLRFKKPQSLTKWSDIWNATKYANSCCQNIDQSFPGFHGSEMWNPNTDLSEDCLYLNVWIPAPKPKNATVLIWIYGGGFQTGTSSLHVYDGKFLARVERVIVVSMNYRVGALGFLALPGNPEAPGNMGLFDQQLALQWVQKNIAAFGGNPKSVTLFGESSGAASVSLHLLSPGSHSLFTRAILQSGSANAPWAVTSLYEARNRTLNLAKLTGCSRENETEIIKCLRNKDPQEILLNEAFVVPYGTALGVNFGPTVDGDFLTDMPDILLELGQFKKTQILVGVNKDEGTWFLVGGAPGFSKDNNSIITRKEFQEGLKIFFPGVSEFGKESILFHYTDWVDDQRPENYREALGDVVGDYNFICPALEFTKKFSEWGNNAFFYYFEHRSSKLPWPEWMGVMHGYEIEFVFGLPLERRDNYTKAEEILSRSIVKRWANFAKYGNPNETQNNSTSWPVFKSTEQKYLTLNTESTRIMTKLRAQQCRFWTSFFPKVLEMTGNIDEAEWEWKAGFHRWNNYMMDWKNQFNDYTSKKESCVGL
modifications: Human mutant BChE
- effect of expression on cell proliferation / differentiation in vitro [1]: did not significantly change cell proliferation
- cocaine-induced lethality in GhBChE mice [2]: nearly lethality
- half-life in vivo [3]: short half-life in vivo
- catalytic efficiency (kcat/KM) relative to wild-type (WT) hBChE [4]: more than 4400 times
